From patent US20230119066A1 (Bristol-Myers Squibb, published 2023) come the findings set out here.

The target of assay [1] is T1, human C-C Motif Chemokine Receptor 8 (hCCR8) (human, UniProt P51685 1-355). In words: cell-based or functional assay.
The target of assay [2] is T1, human C-C Motif Chemokine Receptor 8 …. In words: flow cytometry, binding to activated human Tregs, median EC50. The protocol: Activated Tregs prepared from previously isolated and expanded Tregs were stimulated for 2 days with anti-CD3/CD28 activation beads (ThermoFisher) in the presence of 100 units/ml of recombinant human IL-2. The Abs were serially diluted from a starting concentration of 30 μg/ml. An appropriate PE-conjugated secondary Ab (Jackson ImmunoResearch) against the primary anti-CCR8 Ab was applied, incubated for 15 min at 4° C., and then washed off. EC₅₀ values for the binding of selected anti-CCR8 mAbs to activated Tregs, was calculated using GraphPad Prism (GraphPad Software, La Jolla, Calif.).
A select subset of Abs having EC₅₀ values ranging from picomolar to nanomolar is presented in FIG. 11B, and the respective EC₅₀ values are provided in Table 4.

The target is the same in assay [3]. In words: cell-based or functional assay. The source holds these as a separate data set.
For assay [4] the target is unchanged. In words: cell-based or functional assay. The source holds these as a separate data set.
In assay [5] the target is T2, CCR8 N-terminal peptide (SPR of Example 10) (human, sulfation not stated in Example 10; the panning peptide was biotinylated).
T2 construct: also called biotinylated CCR8 N-terminal peptide from Anaspec
The assay is described as follows: SPR; starting mouse Ab 9G10, before humanization.

For assay [6], the target named is T2, CCR8 N-terminal peptide (SPR of Example …). In words: SPR; 14S15h Fab fragment, humanized, affinity-matured.

B1: mAb 14S15, nonfucosylated chimeric mouse-human anti-hCCR8 (antibody, human IgG1, kappa, V domains shown)
VH: EVQLVEFGGGLVQPKGSLKLSCVVSGFRFNPYAMNWVRQAPGKGLEWLGRIRSKSNNYETYYADSVKDRFIISRDDSQKMVYLQMNNVKTEDTAMYYCVGYSDLYVLDYWGQGTSVTVSS
VL: DIVMTQAAPSVPVTPGESVSISCRSSKSLLHSNGNTFLYWFLQRPGQSPQLLIYRMSNLASGVPHRFSGSGSGTAFTLRISRVEAEDVGVYYCMQHLEYPFTFGSGTKLEIKR
notes: Chimeric version with nf human IgG1 Fc; also called 14S15-IgG1-nf; CCR8.2
For the molecule B1, the “EC50 (pM), cross-linking of CD16 expression reporter cells” value in assay [1] worked out at 8.02 pM. The response in assay [2] was half-maximal at 0.252 nM (EC50). Further, the “Median EC50 (pM), ADCC killing of activated Tregs by allogeneic NK cells” value (“Median EC50 (pM) … by allogeneic NK cells” for short) in assay [3] came to 39.7 pM. The “IC50 (nM), blockade of calcium flux on CCR8-expressing cells” value in assay [4] turned out to be 1.33 nM.

B2: 9G10, starting mouse anti-CCR8 mAb of 14S15 and 14S15h (antibody, V domains shown)
VH: B1 VH
VL: DIVMTQAAPSVPVTPGESVSISCRSSKSLLHSNGNTFLYWFLQRPGQSPQLLIYRMSNLASGVPHRFSGSGSGTAFTLRISRVEAEDVGVYYCMQHLEYPFTFGSGTKLEIK
notes: also called starting mouse Ab; starting mouse mAb
As to B2, in assay [5], binding was put at a Kd of 1.4 nM.

B3: mAb 4A19, nonfucosylated humanized IgG1 anti-hCCR8 (antibody, V domains shown)
VH: QVQLVQSGAEVKKPGASVKVSCKASGYTFTDSEMHWVRQATGQGLEWMGAIQPETGGTAYNQKFKARVTMTRDTSISTAYMELSSLRSEDTAVYYCARRRRNFDYWGQGTLVTVSS
VL: DIVMTQTPLSLSVTPGQPASISCRSSQSLFHSSGNTYLHWYLQKPGQPPQLLIYKVSNRFSGVPDRFSGSGSGTDFTLKISRVEAEDVGVYYCSQSTHVPFTFGQGTKLEIKR
notes: hIgG1-nf, expressed in Expi293 Fut8-/- cells; also called CCR8-nf; A419
Consider B3, for which, in assay [1], the “EC50 (pM), cross-linking of CD16 expression reporter cells” value was found to be 0.69 pM. The half-maximal effective concentration (EC50) in assay [2] is 1.65 nM. Besides, the “Median EC50 (pM) … by allogeneic NK cells” value in assay [3] turned out to be 13.1 pM. The “IC50 (nM), blockade of calcium flux on CCR8-expressing cells” value in assay [4] was 0.465 nM.

B4: mAb 12F27 (antibody, V domains shown)
VH: QVQLVESGGGVVQPGRSLRLSCAASGFSFRSYGIHWVRQAPGKGLEWVAVISYEGSNKRYADSVKGRFTISRDNSKSTLSLQMNSLRAEDTAVYYCAKGRRPSGEGAFDIWGQGTMVTVSS
VL: DIQMTQSPSSLSASVGDRVTITCRASQGISSWLAWYQQKPEKAPKSLIYAASSLQSGVPSRFSGSGSGTDFTLTISSLQPEDFATYYCQQYNSFPPTFGQGTKVEIKR
For B4, the “Median EC50 (pM) … by allogeneic NK cells” value in assay [3] stood at 304000 pM.

B5: 14S15h Fab fragment (Fab, V domains shown)
VH: EVQLVESGGGLVKPGGSLRLSCAASGFRFGPYAMNWVRQAPGKGLEWVGRIRSKSNNYETYYADSVKDRFTISRDDSKNTLYLQMNSLKTEDTAVYYCVGYSDLYVLDYWGQGTLVTVSS
VL: DIVMTQTPPSLPVNPGEPASISCRSSKSLLHSQGNTFLYWYLQKPGQSPQLLIYRMSNLASGVPDRFSGSGSGSDFTLKISWVEAEDVGVYYCMQHLEYPFTFGPGTKVDIK
notes: Tested as a Fab fragment whose constant parts are not delimited
Take B5: the Kd in assay [6] stood at 0.64 nM.
